Target: T1, Halo-tagged α-syt7cyto (cytoplasmic domain of synaptotagmin 7 α, immobilised on HaloLink resin) (mouse, UniProt Q9R0N7 38-403)
T1 construct: synaptotagmin 7, α splice variant, cytoplasmic domain; The Halo-tagged construct is not described under DNA constructs; The sentence on syt1-fl says only 'immobilized syt7'; also called immobilized syt7; source: purified Halo-tagged protein; recombinant proteins were expressed in E. coli BL21(DE3)
Assay: pull-down; Halo-tagged bait immobilised on HaloLink resin (7 μM bait), prey syt1-fl in DOPC proteoliposomes; 25 mM HEPES pH 7.4, 100 mM KCl, 0.2 mM EGTA or 1.2 mM Ca2+; 1 h at 25 °C; supernatants analysed by SDS-PAGE and Western blot
Conditions: both partners purified

T1 sequence (Q9R0N7 38-403): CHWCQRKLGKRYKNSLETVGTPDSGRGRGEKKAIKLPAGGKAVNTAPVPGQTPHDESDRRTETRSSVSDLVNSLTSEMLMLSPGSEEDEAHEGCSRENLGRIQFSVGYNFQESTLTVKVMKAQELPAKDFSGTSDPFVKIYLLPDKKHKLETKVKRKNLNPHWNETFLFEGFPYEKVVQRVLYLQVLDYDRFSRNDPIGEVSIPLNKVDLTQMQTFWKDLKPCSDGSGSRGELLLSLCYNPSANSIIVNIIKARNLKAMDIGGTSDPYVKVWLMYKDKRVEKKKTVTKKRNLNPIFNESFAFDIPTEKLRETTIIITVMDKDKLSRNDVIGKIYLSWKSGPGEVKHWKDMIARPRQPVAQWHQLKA

B1: syt1-fl (full-length synaptotagmin 1, reconstituted into liposomes) (natural protein, rat, UniProt P21707 1-421, looked up)
chain: MVSASHPEALAAPVTTVATLVPHNATEPASPGEGKEDAFSKLKQKFMNELHKIPLPPWALIAIAIVAVLLVVTCCFCVCKKCLFKKKNKKKGKEKGGKNAINMKDVKDLGKTMKDQALKDDDAETGLTDGEEKEEPKEEEKLGKLQYSLDYDFQNNQLLVGIIQAAELPALDMGGTSDPYVKVFLLPDKKKKFETKVHRKTLNPVFNEQFTFKVPYSELGGKTLVMAVYDFDRFSKHDIIGEFKVPMNTVDFGHVTEEWRDLQSAEKEEQEKLGDICFSLRYVPTAGKLTVVILEAKNLKKMDVGGLSDPYVKIHLMQNGKRLKKKKTTIKKNTLNPYYNESFSFEVPFEQIQKVQVVVTVLDYDKIGKNDAIGKVFVGYNSTGAELRHWSDMLANPRRPIAQWHTLQVEEEVDAMLAVKK
notes: synaptotagmin 1, rat cDNA from T. C; Sudhof (Perin et al., 1990); the D374 mutation of that cDNA was corrected to glycine, so residue 374 is G; also called SUMO-syt1-fl; source: E. coli BL21(DE3), purified (with 0.9% CHAPS; cleaved from the beads with SUMO protease), reconstituted into DOPC proteoliposomes
- ratio of binding in Ca2+ to binding in EGTA: 1.46 ± 0.15
